{"source": "patent US11207404B2", "about": "“Compositions and uses” (priority 2015, dated 2021)", "key": {"[1]": {"assay": "Visual assessment of adverse effect on injection site in pigs", "assay_type": "in vivo", "details": "extra dose of 150 μg of Compound A alone; 2 pigs", "description": "A brief adverse effect visual assessment on injection site was performed on 2 random chosen pigs by testing an extra dose of 150 μg of Compound A alone."}, "[2]": {"assay": "Antigen fragment solubility/stability (Table 1)", "assay_type": "physicochemical", "text": "Antigen (abbreviated as “Ag” herein) fragments employed in the present invention typically have certain properties useful in conjugation. In one aspect, the antigen fragments are proteins that are stable in solution and not prone to any substantial aggregation. In another aspect the antigen fragment contains a minimum of three available amines at which conjugation can occur and have a size of less than 500 kD.\nSuch fragments are readily commercially available and/or can be readily made by those skilled in the ar."}}}
{"molecule": "CCCCOc1nc(N)c2[nH]c(=O)n(CC3CCNCC3)c2n1", "note": "[Compound A]", "values": [{"measurement": "visual adverse effect of the injected site", "setting": "[1]", "value": "No visual adverse effect of the injected site was observed"}]}
{"molecule": "Tetanus Toxoid", "values": [{"measurement": "Solubility", "setting": "[2]", "value": 30, "unit": "mg/mL"}, {"measurement": "Stability", "setting": "[2]", "value": "years"}]}
